Columns and labels:
Test in all cases: SPR
[1] = target: Fc-WT-MBP (glycosylated; wild type mouse IgG1 hinge-Fc linked via Gly-Ser-Gly-Gly to MBP1–9[4Y]) (mouse | not stated)
[2] = target: wild type (WT) mouse hinge-Fc region (mouse IgG1 derived), no MBP epitope attached (mouse)
[3] = target: AglyFc-WT-MBP (aglycosylated, N297A; mouse IgG1 hinge-Fc linked via Gly-Ser-Gly-Gly to MBP1–9[4Y]) (mouse | not stated)
[4] = target: AglyFc-mut-MBP (aglycosylated, N297A; mouse IgG1 hinge-Fc TT-HN mutant linked via Gly-Ser-Gly-Gly to MBP1–9[4Y]) (mouse | not stated)

Recombinant mouse FcRn (from UniProt Q61559 22-365; P01887 21-119) (receptor)
KD of the higher affinity interaction site [1]: 0.212 µM
KD of the higher affinity interaction site [2]: 0.188 µM
KD of the higher affinity interaction site [3]: 0.17 µM
KD of the higher affinity interaction site [4]: 0.0198 µM

Reference: paper PMC2738423
